T1: rabbit-lung angiotensin converting enzyme (ACE) (Sigma) (rabbit, UniProt P12822 34-1310, limits assumed)
T1 sequence (looked up): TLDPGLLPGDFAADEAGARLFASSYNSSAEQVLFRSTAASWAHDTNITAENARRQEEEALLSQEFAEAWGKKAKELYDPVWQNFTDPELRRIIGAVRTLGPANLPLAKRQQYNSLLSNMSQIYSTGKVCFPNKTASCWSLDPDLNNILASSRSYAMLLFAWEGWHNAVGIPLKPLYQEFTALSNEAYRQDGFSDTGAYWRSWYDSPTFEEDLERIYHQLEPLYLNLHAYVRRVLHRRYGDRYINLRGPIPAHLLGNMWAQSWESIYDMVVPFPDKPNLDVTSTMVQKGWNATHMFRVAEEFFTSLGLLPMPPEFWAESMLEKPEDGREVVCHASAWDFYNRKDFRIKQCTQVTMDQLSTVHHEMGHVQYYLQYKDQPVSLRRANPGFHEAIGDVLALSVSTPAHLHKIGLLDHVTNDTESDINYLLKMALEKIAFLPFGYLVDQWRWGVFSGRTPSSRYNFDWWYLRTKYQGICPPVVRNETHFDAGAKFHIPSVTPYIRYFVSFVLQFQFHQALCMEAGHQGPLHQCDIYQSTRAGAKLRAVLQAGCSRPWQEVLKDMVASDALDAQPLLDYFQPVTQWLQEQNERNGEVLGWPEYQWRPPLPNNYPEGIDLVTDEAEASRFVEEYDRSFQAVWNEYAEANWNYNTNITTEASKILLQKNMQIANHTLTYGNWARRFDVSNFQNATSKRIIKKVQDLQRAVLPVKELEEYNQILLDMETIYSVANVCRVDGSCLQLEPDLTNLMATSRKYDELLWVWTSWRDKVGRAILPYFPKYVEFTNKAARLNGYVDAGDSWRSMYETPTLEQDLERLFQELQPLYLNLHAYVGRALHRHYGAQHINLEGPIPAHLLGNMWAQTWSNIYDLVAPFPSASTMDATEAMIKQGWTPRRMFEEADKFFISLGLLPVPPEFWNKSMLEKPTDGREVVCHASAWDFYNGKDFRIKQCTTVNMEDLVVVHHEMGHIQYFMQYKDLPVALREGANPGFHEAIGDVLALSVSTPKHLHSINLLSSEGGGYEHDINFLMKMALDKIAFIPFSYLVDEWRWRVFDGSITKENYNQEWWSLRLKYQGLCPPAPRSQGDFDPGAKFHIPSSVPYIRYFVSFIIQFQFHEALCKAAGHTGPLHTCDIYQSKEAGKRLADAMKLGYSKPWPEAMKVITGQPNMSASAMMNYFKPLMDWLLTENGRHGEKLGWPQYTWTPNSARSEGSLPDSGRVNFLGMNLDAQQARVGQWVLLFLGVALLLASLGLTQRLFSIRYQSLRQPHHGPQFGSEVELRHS


Molecular target: T1, rabbit-lung angiotensin converting …
Experiment: cell-based or functional assay

| Binder | ACE inhibitory activity, IC50 |
| --- | --- |
| YYCPADCPS [SEQ ID NO: 2 peptide YYCPADCPS] | 1640 nM |
| YGCGCDPL [SEQ ID NO: 3 peptide YGCGCDPL] | 1850 nM |
| RDGGYCC [SEQ ID NO: 1 peptide RDGGYCC] | 840 nM |

Results, then the binder that gave them:

| ACE inhibitory activity, IC50 | Binder |
| --- | --- |
| 6880 nM | WAAGYCC [SEQ ID NO: 6 peptide WAAGYCC] |
| 39600 nM | CCGNAVPQ [SEQ ID NO: 7 peptide CCGNAVPQ] |
| 2590 nM | HCGCNTH [SEQ ID NO: 5 peptide HCGCNTH] |
| 2580 nM | LEEFCC [SEQ ID NO: 4 peptide LEEFCC] |

Reference: patent EP3170507A1 (Consejo Superior de Investigaciones Cientificas (CSIC), dated 2017)
